Publication PMC3258177 (Molecular Biology of the Cell, 2012)

T1: Recombinant Sec6 (1–805) (yeast, UniProt P32844 1-805)
T1 sequence: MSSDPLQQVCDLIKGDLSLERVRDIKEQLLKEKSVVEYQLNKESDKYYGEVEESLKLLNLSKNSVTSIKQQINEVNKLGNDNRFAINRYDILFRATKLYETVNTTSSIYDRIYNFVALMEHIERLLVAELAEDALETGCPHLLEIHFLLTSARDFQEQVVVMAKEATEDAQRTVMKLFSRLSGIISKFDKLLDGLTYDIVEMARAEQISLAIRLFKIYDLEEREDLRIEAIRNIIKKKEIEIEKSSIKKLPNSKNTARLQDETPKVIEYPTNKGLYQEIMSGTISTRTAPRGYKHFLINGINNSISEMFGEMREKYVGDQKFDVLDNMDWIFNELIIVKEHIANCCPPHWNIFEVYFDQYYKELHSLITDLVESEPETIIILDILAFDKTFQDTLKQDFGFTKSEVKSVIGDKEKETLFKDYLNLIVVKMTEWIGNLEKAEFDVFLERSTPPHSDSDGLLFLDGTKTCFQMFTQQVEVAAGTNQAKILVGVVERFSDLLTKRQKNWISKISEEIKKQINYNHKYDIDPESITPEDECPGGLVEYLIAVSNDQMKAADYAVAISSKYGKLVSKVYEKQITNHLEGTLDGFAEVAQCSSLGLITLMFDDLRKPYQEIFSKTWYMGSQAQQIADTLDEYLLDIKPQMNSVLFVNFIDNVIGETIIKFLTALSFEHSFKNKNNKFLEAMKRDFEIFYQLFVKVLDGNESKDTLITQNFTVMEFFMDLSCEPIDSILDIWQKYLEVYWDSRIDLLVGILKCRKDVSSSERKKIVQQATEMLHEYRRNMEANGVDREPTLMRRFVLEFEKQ

B1: Sso1, cytoplasmic region (domain or fragment)
chain: MSYNNPYQLETPFEESYELDEGSSAIGAEGHDFVGFMNKISQINRDLDKYDHTINQVDSLHKRLLTEVNEEQASHLRHSLDNFVAQATDLQFKLKNEIKSAQRDGIHDTNKQAQAENSRQRFLKLIQDYRIVDSNYKEENKEQAKRQYMIIQPEATEDEVEAAISDVGGQQIFSQALLNANRRGEAKTALAEVQARHQELLKLEKSMAELTQLFNDMEELVIEQQENVDVIDKNVEDAQLDVEQGVGHTDKAVKSARKARKNKIR
B2: MBP-Sec9CT (domain or fragment)
chain: ARQQQEEDEAVDEIKQEIKFTKQSSVASTRNTLKMAQDAERAGMNTLGMLGHQSEQLNNVEGNLDLMKVQNKVADEKVAELKKLNRSILAVHVSNPFNSKRRRREREEQLKNRKIEEKLMREQTSQQLSQSTQRIEGAMNANNNISEVRERYQRKNVLEKAKRYQFENDEEDDEMELEIDRNLDQIQQVSNRLKKMALTTGKELDSQQKRLNNIEESTDDLDINLHMNTNRLAGIR
B3: Sec9CT (416–651) (domain or fragment)
chain: B2 chain
B4: Sec1-V5-His6 (natural protein)
chain: MSDLIELQRNYLIGVLNQIETKNNLKFLIIDKTVETILSYLFLTPQELLNNVTSVDLIDSPTRKGQSSIEAIYILEPTKYNINCIDADFMVRPPKYRRCHIRFLPGLTNPIFQFFQSKRYIAQNLESFKPIELGFFVKESQFFETLQMEHSLQVFFNNNCKALIPTNVRKIVGSLVSLCVITGEYPIVRYSVSNPVEEEDARNGNAVVNANSLTRSIANAFQIAIDTYARNNPDFPPQNTERPRSILIITDRTLDPFAPILHDFSYQAMAYDLVANVDTQKDIYHYSAENEAGEQEEKVSKLVDLYDPDWIDLKHQHIMDANEYIQGRIKELIAKNPLLVDRSNVKNTTDLLSVVAHLKDFDEERRRLILHKTLVDECLGENAERKLADISAIEQNLSGFGMDFSGEKIKHIIDDLLPALAMKEPTILDKLRYIIAYALFRGGIIELDFIKLLNFIGVTHEHENFQQYLKIFRNYDLIDFKLIKDKPKDKPFQKEWFHDTLVNDPNIYHTSRFVPAVGNILSKVIANPLLLSEQYFPYLKDKPIELLNEEEFQAGLANTSANSSSSLRNPRHKAAWTTKSSNIKKNIPRQRFFYYVIGGISIPEIKAAYDQSNLKNRDIFIGSDEILTPTKFLDEVERLQNPREFFKFKEDQRQQVNPPDFLLREMKPVAQPVSHVHLKSQDNSPKSGTSSPKAAGSLKSEPPEKEKKRSKFSRFLKRKSHHDK

How the values were obtained:
[1] = biological target: B4; assay: pull-down
[2] = biological target: T1, Recombinant Sec6 (1–805); assay: […]
[3] = biological target: T1, Recombinant Sec6 (1–805); assay: SEC
[4] = biological target: T1, Recombinant Sec6 (1–805); assay: pull-down

B1
Kd [1]: > 10000 nM

B2
binding result [2]: binds

B3
binding result [3]: binds

B4
Kd [4]: ~1700 nM
